Laboratory results from patent publication US9797889B2, “Activation of bioluminescence by structural complementation” (Promega Corporation, priority 2013, dated 2017).

How the values were obtained:
[1] = target: wild-type non-luminescent polypeptide (Oplophorus gracilirostris, UniProt Q9GV45, A31E/A60N/A81I/F95D/I117V/K70R/L54V/L99Q/M102K/P142E/Q151K/Q38R/Q45L/V71I/Y165I); experiment: NLpep mutant luminescence with wild-type NLpoly lysate (Examples 7, 8, 12, 13); details: mutations based on alignment to fatty acid binding proteins
Sequence of wild-type non-luminescent polypeptide (Q9GV45 other isoform, or with tags, fused parts or gaps with the stated changes): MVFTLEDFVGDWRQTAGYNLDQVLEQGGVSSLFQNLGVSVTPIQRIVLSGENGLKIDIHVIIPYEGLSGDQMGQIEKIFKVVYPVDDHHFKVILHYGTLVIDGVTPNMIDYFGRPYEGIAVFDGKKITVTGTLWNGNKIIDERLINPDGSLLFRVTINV

5P = 5P (Oplophorus gracilirostris, UniProt Q9GV45, A31E/A60N/A81I/D135N/F95D/G42A/G62A/G78A/G94A/G98A/I117V/K70R/L176M/L54V/L99Q/M102K/N171T/P142E/Q151K/Q38E/Q45L/V71I/Y165I); experiment: Titration of 5P with NLpep88-HT (Example 47); format: biochemical; details: lower concentrations of NLpep88
Sequence of 5P (Q9GV45 other isoform, or with tags, fused parts or gaps with the stated changes): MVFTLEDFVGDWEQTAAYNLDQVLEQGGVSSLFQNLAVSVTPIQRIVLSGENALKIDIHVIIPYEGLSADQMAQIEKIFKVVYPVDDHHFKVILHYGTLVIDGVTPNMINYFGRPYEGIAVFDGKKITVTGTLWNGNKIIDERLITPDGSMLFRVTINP

11S = 11S (Oplophorus gracilirostris, UniProt Q9GV45, A31E/A60N/A81I/D135N/F58L/F95D/G42A/G62A/G78A/G94A/G98A/H120P/I103V/I117V/I134L/K70R/L176M/L54V/L73R/L99Q/M102E/N171T/P142E/Q151K/Q38E/Q45L/V71I/Y165I); experiment: Substrate effect on 11S/NLpep79 Kd (Example 55); format: binding; details: saturating (50 uM) vs sub-saturating (5 uM) furimazine
[…] [2] = target: T1, […] (Oplophorus gracilirostris, UniProt Q9GV45); experiment: Luminescence of non-luminescent polypeptide mutants upon complementation (Example 5, Table 4); details: complementation with peptide […]; induced E. coli culture, NANOGLO reagent
[…] [3] = target: T1, […]; experiment: as above; details: complementation with peptide […]; induced E. coli culture, NANOGLO reagent; remark: listed apart in the source
NLpep79 = experiment: Substrate specificity of NLpoly 5P and 11S with NLpep79 (Example 97); format: biochemical; details: with NLpep79, 11S compared with 5P
Method: E. coli clarified lysates were prepared for NLpoly 5P or 11S as described previously. The NLpoly lysates were then serially diluted in steps of 10-fold into PBS+0.1% Prionex.

NLpep78-HT or NLpep79-HT = experiment: NLpoly variant luminescence without NLpep, with NLpep78-HT or NLpep79-HT (Examples 62, 93); format: biochemical; details: E. coli expression culture
Method: Single NLpoly variant colonies were inoculated with 200 uL minimal media and grown for 20 hrs at 37° C. on a shaker. 10 uL of the overnight culture were diluted into 190 uL fresh minimal media and grown for 20 hrs at 37° C. on a shaker. 10 uL of this overnight culture was then diluted into 190 uL auto-induction media (previously described) and grown for 18 hrs at 25° C. on a shaker. 10 uL of this expression culture was mixed with 40 uL of assay lysis buffer (previously described) without NLpep or NLpep78-HT (1:3,860 dilution) or NLpep79-HT (1:10,000 dilution) and shaken for 10 min at RT. 50 uL of NanoGlo+Fz was added and again shake for 10 min at RT. Luminescence was measured on GloMax® luminometer with 0.5 sec integration. FIGS. 105-107 illustrate the luminescence of various NLpolys in the absence of NLpep.
A single colony of various NLpolys were inoculated individually into 200 uL minimal media and grown for 20 hrs at 37° C. on shaker. […] 10 uL of this overnight culture was diluted into 190 uL auto-induction media (previously described) and grow for 18 hrs at 25° C. on shaker. 10 uL of the expression culture was mixed with 40 uL of assay lysis buffer (previously described) without NLpep or with NLpep78-HT (1:3,860 dilution) or NLpep79-HT (1:10,000 dilution).

[4] = Luminescence of NLpoly without NLpep (Example 57); format: biochemical; details: E. coli clarified lysate, NanoGlo+Fz
Method: 50 uL of each lysate and 50 uL NanoGlo+Fz were mixed and incubated for 5 min RT. Luminescence was measured on GloMax® Multi+ with 0.5 sec integration.

Molecule: DVTGWRLCERILA [NLpep2]
- activity (luminescence) of single-mutation NLpep with wild-type NLpoly [1]: retains/improves activity

Molecule: NVSGWGLFKKISN [NLpep88]
- luminescence of 5P titrated with NLpep88-HT (5P): no increase in luminescence above 5P alone

Molecule: NVTGYRLFKKISN [NLpep79]
- affinity between 11S and NLpep79 (11S): increase the affinity

Molecule: GVTGWRLCERISA [NLpep5]
- activity (luminescence) of single-mutation NLpep with wild-type NLpoly [1]: retains/improves activity

Molecule: GVTAWRLCERILA [NLpep3]
- activity (luminescence) of single-mutation NLpep with wild-type NLpoly [1]: not likely to be tolerated

Molecule: GVTGWRLCKRILA [NLpep4]
- activity (luminescence) of single-mutation NLpep with wild-type NLpoly [1]: retains/improves activity

B1: L149M (protein)
chain: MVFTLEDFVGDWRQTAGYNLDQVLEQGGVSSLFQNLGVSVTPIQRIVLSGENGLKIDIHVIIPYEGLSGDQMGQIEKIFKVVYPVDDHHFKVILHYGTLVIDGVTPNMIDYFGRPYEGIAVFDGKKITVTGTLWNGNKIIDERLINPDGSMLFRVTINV
- luminescence relative to wild-type, RLU(mutant)/RLU(WT) ([…] [2]): 2.89 RLU(mutant)/RLU(WT)
- luminescence relative to wild-type, RLU(mutant)/RLU(WT) ([…] [3]): 2.16 RLU(mutant)/RLU(WT)

B2: 11S: NLpoly variant 11S (12S-51) (protein)
chain: MVFTLEDFVGDWEQTAAYNLDQVLEQGGVSSLLQNLAVSVTPIQRIVRSGENALKIDIHVIIPYEGLSADQMAQIEEVFKVVYPVDDHHFKVILPYGTLVIDGVTPNMLNYFGRPYEGIAVFDGKKITVTGTLWNGNKIIDERLITPDGSMLFRVTINS
- substrate specificity for furimazine (NLpep79): superior specificity for furimazine than 5P
- luminescence of NLpoly variant without NLpep or with NLpep78 or NLpep79 (NLpep78-HT or NLpep79-HT): improved luminescence over the other variants
- luminescence in the absence of NLpep relative to WT NLpoly [4]: ~500 fold
